Experimental data published in publication PMC9118860.

Biological target: MTS-LOV2^V416L (membrane-anchored Light-oxygen-voltage-sensing domain 2, V416L variant)

Zdk1-N1ICD (Zdark 1 fused to the human NOTCH1 intracellular domain) (designed binder)
12xCSL-Luc luciferase reporter (RLU) in HEK293T cells, 48 h after blue light activation (0.05-s pulses for 1, 3 and 12 h), against LOV2^WT: 5 fold
